Laboratory results from patent publication CN113929777A (DONGGUAN PENGZHI BIOTECHNOLOGY CO LTD, dated 2022).

Molecular target: T1, 重组肌红蛋白(自产) (UniProt P02144 2-154)
T1 construct: The ELISA names it 重组肌红蛋白 and the BLI assay names it MYO蛋白; both are treated as one molecule; also called MYO蛋白; Mb
T1 sequence (looked up): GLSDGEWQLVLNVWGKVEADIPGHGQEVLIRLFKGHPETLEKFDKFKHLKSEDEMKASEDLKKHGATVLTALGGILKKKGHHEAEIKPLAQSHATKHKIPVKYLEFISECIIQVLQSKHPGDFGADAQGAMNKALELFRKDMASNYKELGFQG
Test: BLI, antibody captured on AMC sensors, MYO protein in serial dilution

Kd: 4.56 nM
koff: 0.000118 s⁻¹
kon: 25900 M⁻¹ s⁻¹
B1: 实施例1的肌红蛋白单克隆抗体(WT) (antibody, mouse IgG1, kappa, V domains shown)
VH: QIQLVQSGPELKKPGETVKISCKASGYTYTEFSVHWVKQAPGKGLKWMGWINSETSEPTYGDDFKGRFAFSLETSASAAYLQINNLKNEDSATYFCARRAYYLFGPFTYWGQGTLVTVSA
VL: DIVLTQSPASLAVSLGQRATISCRASKSVDFNGDSYMNWHQQKPGQPPKLLIYAASQRESGIPARFSGSGSGTDFTLNIHPVEEEDAATYYCQHSNEEPYTFGGGTKLEIKR
notes: Recombinant antibody cloned from hybridoma 5G9 and expressed in CHO cells; Detected with goat anti-mouse IgG-HRP; also called WT抗体; 5G9 recombinant antibody
